Laboratory results taken from IntAct's records for PubMed 31515488.

B1: Protein FAM9B (Homo sapiens), Q8IZU0 (parent)
chain: MAAWGKKHAGKDPVRDECEERNRFTETREEDVTDEHGEREPFAETDEHTGANTKKPEDTAEDLTAKRKRMKMDKTCSKTKNKSKHALRKKQLKRQKRDYIHSLKLLNVLEEYITDEQKEEEEEEGEEEELIRIFQEQQKKWQQYRSVRRERLKEMKLLRDQFVKALEDFEDLCDRVFSDEDSELDN
partner: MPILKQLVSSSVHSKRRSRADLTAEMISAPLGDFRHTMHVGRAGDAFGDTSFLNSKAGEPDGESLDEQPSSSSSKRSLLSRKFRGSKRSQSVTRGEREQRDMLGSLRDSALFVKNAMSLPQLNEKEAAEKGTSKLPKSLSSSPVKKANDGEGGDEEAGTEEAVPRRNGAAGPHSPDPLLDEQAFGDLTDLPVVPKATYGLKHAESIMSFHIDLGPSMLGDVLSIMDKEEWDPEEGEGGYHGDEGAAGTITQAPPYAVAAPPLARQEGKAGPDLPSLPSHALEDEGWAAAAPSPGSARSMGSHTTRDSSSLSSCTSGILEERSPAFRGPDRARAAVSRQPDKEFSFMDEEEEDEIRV
B2: Tektin-4 (Homo sapiens), Q8WW24 (parent)
chain: MAQTVPPCELPCKEYDVARNTGAYTSSGLATASFRTSKYLLEEWFQNCYARYHQAFADRDQSERQRHESQQLATETQALAQRTQQDSTRTVGERLQDTHSWKSELQREMEALAAETNLLLAQKQRLERALDATEVPFSITTDNLQCRERREHPNLVRDHVETELLKEAELIRNIQELLKRTIMQAVSQIRLNREHKETCEMDWSDKMEAYNIDETCGRHHSQSTEVQAHPYSTTFQESASTPETRAKFTQDNLCRAQRERLASANLRVLVDCILRDTSEDLRLQCDAVNLAFGRRCEELEDARYKLHHHLHKTLREITDQEHNVAALKQAIKDKEAPLHVAQTRLYLRSHRPNMELCRDAAQFRLLSEVEELNMSLTALREKLLEAEQSLRNLEDIHMSLEKDIAAMTNSLFIDRQKCMAHRTRYPTILQLAGYQ
B3: Melanoma-associated antigen 4 (Homo sapiens), P43358 (parent)
chain: MSSEQKSQHCKPEEGVEAQEEALGLVGAQAPTTEEQEAAVSSSSPLVPGTLEEVPAAESAGPPQSPQGASALPTTISFTCWRQPNEGSSSQEEEGPSTSPDAESLFREALSNKVDELAHFLLRKYRAKELVTKAEMLERVIKNYKRCFPVIFGKASESLKMIFGIDVKEVDPASNTYTLVTCLGLSYDGLLGNNQIFPKTGLLIIVLGTIAMEGDSASEEEIWEELGVMGVYDGREHTVYGEPRKLLTQDWVQENYLEYRQVPGSNPARYEFLWGPRALAETSYVKVLEHVVRVNARVRIAYPSLREAALLEEEEGV
partner: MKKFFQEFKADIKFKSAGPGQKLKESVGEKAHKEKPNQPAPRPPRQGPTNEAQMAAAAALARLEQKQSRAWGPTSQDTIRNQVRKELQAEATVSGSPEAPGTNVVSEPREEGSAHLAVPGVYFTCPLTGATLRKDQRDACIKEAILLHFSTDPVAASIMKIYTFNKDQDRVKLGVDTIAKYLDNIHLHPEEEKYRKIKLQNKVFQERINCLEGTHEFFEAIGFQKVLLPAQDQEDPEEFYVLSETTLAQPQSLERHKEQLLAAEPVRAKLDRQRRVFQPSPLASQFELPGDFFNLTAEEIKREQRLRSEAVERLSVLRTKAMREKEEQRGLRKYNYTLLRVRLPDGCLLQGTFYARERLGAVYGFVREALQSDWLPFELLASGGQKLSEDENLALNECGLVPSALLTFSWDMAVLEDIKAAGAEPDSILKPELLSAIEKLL

Variants of: B1
Details: with borg4_human CDC42EP4, Q9H3Q1

Effect of a mutation on the interaction, with no effect:
R23H

Variants of: B2
Details: with trip6_human TRIP6, Q15654
Chain of trip6_human TRIP6, Q15654 (Q15654 whole entry): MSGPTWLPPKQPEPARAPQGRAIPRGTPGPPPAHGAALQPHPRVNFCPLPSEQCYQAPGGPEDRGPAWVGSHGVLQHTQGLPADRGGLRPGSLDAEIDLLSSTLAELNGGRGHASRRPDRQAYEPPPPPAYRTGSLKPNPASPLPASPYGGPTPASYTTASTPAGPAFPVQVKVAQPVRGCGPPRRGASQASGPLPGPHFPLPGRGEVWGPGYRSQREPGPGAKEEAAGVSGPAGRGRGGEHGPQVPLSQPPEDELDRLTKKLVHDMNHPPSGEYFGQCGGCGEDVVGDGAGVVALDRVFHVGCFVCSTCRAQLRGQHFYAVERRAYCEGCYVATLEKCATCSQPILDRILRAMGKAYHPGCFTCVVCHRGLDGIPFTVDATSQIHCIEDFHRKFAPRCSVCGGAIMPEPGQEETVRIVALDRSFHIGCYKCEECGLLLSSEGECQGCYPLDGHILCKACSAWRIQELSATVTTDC

Effect of a mutation on the interaction, with no effect:
M374V
S100G
R255C
R82C
C272S
R64W
T83M

Variants of: B2
Details: with maga4_human MAGEA4, P43358

Effect of a mutation on the interaction, with no effect:
M374V
S100G
R255C
R82C
C272S
R64W
T83M

Variants of: B2
Details: with atg5_human ATG5, Q9H1Y0
Chain of atg5_human ATG5, Q9H1Y0 (Q9H1Y0 whole entry): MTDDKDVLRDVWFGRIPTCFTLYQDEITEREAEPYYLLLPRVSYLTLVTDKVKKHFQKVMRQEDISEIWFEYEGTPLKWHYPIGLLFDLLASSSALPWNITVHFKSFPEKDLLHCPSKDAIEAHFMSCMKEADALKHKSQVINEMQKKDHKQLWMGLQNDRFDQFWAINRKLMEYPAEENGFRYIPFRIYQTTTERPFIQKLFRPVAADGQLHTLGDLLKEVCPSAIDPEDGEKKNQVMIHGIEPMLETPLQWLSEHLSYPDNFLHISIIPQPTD

Effect of a mutation on the interaction, with no effect:
M374V
M374T
S100G
R255C
D403N
R82C
A80V

Effect of a mutation on the interaction, disrupting interaction strength:
I404T

Variants of: B3
Details: with ubxn6_human UBXN6, Q9BZV1

Effect of a mutation on the interaction, with no effect:
S41F
